Source: the supplement of paper PMC9732359
± gives the uncertainty stated by the source.

Test: protein stability index of a GFP-peptide fusion (yeast GPS) (PSI 1-4); higher = more stable; sorted into four equal gates, so the index is relative within each strain
Summary of the method: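 Tiled 17-residue peptides from yeast proteins were fused downstream of GFP on a plasmid that also expresses Cherry, and the pooled library was carried in yeast. Mid-log cultures grown in leucine-free medium were sorted into four equal gates by GFP/Cherry fluorescence ratio. Plasmids from each gate were PCR-amplified and Illumina-sequenced, and reads were assigned to strains by barcodes. Each peptide's protein stability index is the sum, over gates, of the gate's read frequency multiplied by its gate number.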

Sequence	protein stability index (doa10∆)	protein stability index (pdr5∆)	protein stability index (san1∆)	protein stability index (ubr1∆)
PKSTKGKILTIKQQQQQ [YML103C/NUP188]	2.39 ± 0.038	2.59 ± 0.046	2.42 ± 0.062	2.52 ± 0.04
TTLKLSPSPILLTSAGC [NUT1]	1.47 ± 0.043	1.42 ± 0.039	1.45 ± 0.09	1.51 ± 0.036
LPKFLTVQYVRFFWKRS [UBP6]	1.62 ± 0.04	1.35 ± 0.035	1.24 ± 0.085	1.19 ± 0.032
HSLAYLLENFANFKTSK [RRP6]	2.68 ± 0.22	2.05 ± 0.14	2.81 ± 0.19	2.53 ± 0.17
RSNDPQSSLSKVDIPLE [NUT2]	3.02 ± 0.098	3.23 ± 0.094	3.27 ± 0.056	2.93 ± 0.15
CDGDTVWDKFAVNLLNC [SSN2]	3.29 ± 0.1	3.3 ± 0.098	3.14 ± 0.07	3.11 ± 0.1
RIMSRNFYLKRFISDLL [SWI1]	2.32 ± 0.058	2.37 ± 0.074	2.08 ± 0.095	1.54 ± 0.034
IFNGETLEDALRRIITD [GRR1]	1.96 ± 0.084	1.96 ± 0.059	2.07 ± 0.07	2.07 ± 0.064
DSLASELTLAEQQVKEA [SMC4]	3.24 ± 0.21	3.53 ± 0.11	3.23 ± 0.15	3.39 ± 0.23
NAKIIDAEVAQFLEQGL [SRP68]	2.83 ± 0.057	2.59 ± 0.045	2.12 ± 0.073	3.08 ± 0.041
DKFSPEDGLGPLMAKSV [ARP7]	3.02 ± 0.11	3.06 ± 0.11	2.66 ± 0.13	3.39 ± 0.097
SCTFWSDKESNAYGFIE [YJL039C/NUP192]	2.9 ± 0.079	2.65 ± 0.083	2.83 ± 0.07	3.26 ± 0.09
ILDPQVTRFTTWNGSPF [YJL039C/NUP192]	1.26 ± 0.09	2.03 ± 0.12	1.51 ± 0.17	2.56 ± 0.12
MNLVLNECIEERVPKTQ [SMB1]	2.3 ± 0.23	–	–	–
KSKLDQDSTSENVKIIN [RPN2]	3.39 ± 0.07	3.3 ± 0.065	2.97 ± 0.074	3.18 ± 0.08
LKYLSVEEVIKLVRDSF [PRE7]	2.71 ± 0.13	3.27 ± 0.11	2.72 ± 0.12	3.08 ± 0.078
MSAPTMRSTSILTEHLG [MTW1]	–	–	2.87 ± 0.24	–
ELSEEKYIVKASSGPRY [RPT4]	2.66 ± 0.21	2.72 ± 0.17	3.21 ± 0.098	2.41 ± 0.18
RSLVREIAGLSPYERRL [RPL36A]	2.86 ± 0.13	3.5 ± 0.2	2.78 ± 0.12	2.82 ± 0.11
DDSANIVNVNFMKSVIR [DIS3]	2.92 ± 0.051	3.1 ± 0.06	3.06 ± 0.069	3.03 ± 0.044
VVKGRVEKTLLSDVAFY [RPO31]	2.16 ± 0.22	3.14 ± 0.23	–	2.52 ± 0.15
RMYEEASGKEVEKVATA [RPN2]	2.67 ± 0.25	–	–	–
HAYNITFNNQDKGLLPY [RPO31]	2.64 ± 0.09	3.09 ± 0.2	1.76 ± 0.098	2.91 ± 0.057
KLTQKLVTAGVAAAGIT [CYT1]	2.1 ± 0.083	2.21 ± 0.086	2.56 ± 0.065	2.11 ± 0.052
GRFLRVPKEGLFYFDSS [BRR2]	3.18 ± 0.11	3.32 ± 0.073	3.3 ± 0.081	3.1 ± 0.054

Sequence	protein stability index (doa10∆)	protein stability index (pdr5∆)	protein stability index (san1∆)	protein stability index (ubr1∆)
LESWWLVLGEVSKKELY [BRR2]	1.68 ± 0.16	1.39 ± 0.14	1.11 ± 0.17	–
TKEMDEVEEDDEDDDQP [SWI3]	3.39 ± 0.12	3.49 ± 0.068	3.48 ± 0.056	3.27 ± 0.066
EVGNRKHYLEDKLKVYK [SNF5]	3.19 ± 0.1	3.19 ± 0.14	3.11 ± 0.12	3.06 ± 0.067
RQTGPAKINEVYNNSKD [NSL1]	3.06 ± 0.087	3.06 ± 0.083	2.93 ± 0.073	2.9 ± 0.062
EPQGAVTHMDQIFVRGS [SMD3]	2.64 ± 0.11	2.77 ± 0.07	2.62 ± 0.099	2.56 ± 0.11
LELVNTPLTENILIASL [YCG1]	1.66 ± 0.052	1.62 ± 0.042	1.93 ± 0.083	2.27 ± 0.037
TRLKSLLKPFHVKVNDK [SIR3]	2.65 ± 0.093	2.96 ± 0.082	2.79 ± 0.075	2.81 ± 0.052
WKDFTVEIAFLFRAIYL [YCG1]	2.36 ± 0.1	2.36 ± 0.064	2.48 ± 0.1	2.26 ± 0.071
GKTDYYQRKRLVTQHKA [RPL5]	–	–	–	3.69 ± 0.22
VGHLSILPQQSKLKLKN [ECM29]	1.91 ± 0.16	2.31 ± 0.1	1.88 ± 0.13	2.5 ± 0.15
QLSKAAKAAAALAGGKK [RPS25A]	1.7 ± 0.057	1.86 ± 0.067	1.82 ± 0.08	1.77 ± 0.047
QAIITERLVEFSNVNEL [YIL149C/MLP2]	2.72 ± 0.19	3.38 ± 0.1	3.58 ± 0.15	3.31 ± 0.12
VLMGKNTMVRRAIRGFL [RPP0]	3.27 ± 0.26	–	3.34 ± 0.17	–
KTSCVVEKRIGKIVSQR [RGR1]	2.76 ± 0.061	2.77 ± 0.048	3.12 ± 0.045	2.85 ± 0.036
SIISSKTSCVVEKRIGK [RGR1]	2.46 ± 0.089	2.62 ± 0.084	2.59 ± 0.093	2.69 ± 0.05
TFTIKEFVSYYYAHSIP [SNU114]	1.88 ± 0.039	1.77 ± 0.045	2.25 ± 0.055	1.88 ± 0.052
ETATSERNASEVRDATL [GRR1]	3.53 ± 0.19	3.45 ± 0.19	–	3.52 ± 0.19
TISKESTPDQRKRVYNI [ESC2]	2.92 ± 0.15	3.16 ± 0.24	3.11 ± 0.17	3.01 ± 0.099
LSFSWAILLIINLTQTY [NUT1]	1.5 ± 0.088	1.96 ± 0.069	2.24 ± 0.097	2.06 ± 0.041
DVKKRTYEAIDVPGREL [RPB2]	1.99 ± 0.15	3.35 ± 0.16	2.62 ± 0.23	3.57 ± 0.17
SLWRRTVYSLSQQAGLD [YDL116W/NUP84]	1.9 ± 0.12	2.39 ± 0.28	1.78 ± 0.27	2.26 ± 0.08
FRTDMLQVADKFFRVKY [SMC3]	1.92 ± 0.068	2.49 ± 0.066	1.77 ± 0.076	2.12 ± 0.051
RHGSVVEASRRRRSSTN [MED1]	3.19 ± 0.073	3.41 ± 0.078	3.26 ± 0.045	3.3 ± 0.044
IIRHEKELEPWDLQLQE [SMC4]	3.28 ± 0.15	2.82 ± 0.13	–	3.47 ± 0.16
RVVMMKYDRKVPSPTGE [RPO21]	2.69 ± 0.11	3.11 ± 0.069	2.69 ± 0.079	2.89 ± 0.043

Sequence	protein stability index (doa10∆)	protein stability index (pdr5∆)	protein stability index (san1∆)	protein stability index (ubr1∆)
NQQAQARQQVAQQLRNQ [GAL11]	2.49 ± 0.065	2.94 ± 0.13	2.45 ± 0.14	2.34 ± 0.1
PRDLLRVIIQELRFPSP [PRP28]	1.74 ± 0.047	1.94 ± 0.055	1.78 ± 0.064	1.72 ± 0.061
LVSLLDENDSKKNNAAS [YAR002W/NUP60]	3 ± 0.07	2.92 ± 0.071	2.86 ± 0.092	3.08 ± 0.056
LGSSEAENLLQLKTGLA [YGL172W/NUP49]	–	3.29 ± 0.18	2.98 ± 0.085	2.5 ± 0.2
NALDKLRNNLNSLIEEI [YCG1]	3.22 ± 0.12	3.26 ± 0.1	2.27 ± 0.21	3.08 ± 0.092
NGSEKVLIAQERSAGNI [RPB2]	3.1 ± 0.17	3.44 ± 0.21	3.12 ± 0.12	3.06 ± 0.061
SNSTPNANQQFLPFNNS [SWI1]	3.25 ± 0.072	3.19 ± 0.058	2.96 ± 0.059	2.94 ± 0.052
KEEISDQKPIEHIKEGS [SWI3]	2.96 ± 0.053	2.82 ± 0.051	2.88 ± 0.063	3 ± 0.04
DCLSFAPTLSQTYINQE [SSN2]	2.69 ± 0.074	2.76 ± 0.081	2.77 ± 0.087	2.91 ± 0.048
RETLVKTWEKVTLDFGN [SMC2]	1.77 ± 0.063	1.74 ± 0.14	1.83 ± 0.28	1.27 ± 0.12
KTEYVLNDLNHLLVQLQ [REC8]	–	3.02 ± 0.25	–	3.02 ± 0.094
DDTWYNLTEFVQMDKIR [AAR2]	2.82 ± 0.11	2.88 ± 0.081	2.79 ± 0.061	2.83 ± 0.084
TAIGIATKEGVVLGVEK [PUP2]	3.15 ± 0.14	3.31 ± 0.11	2.79 ± 0.16	3.11 ± 0.058
CLFTKCLEDPEKPFNEN [POP4]	2.67 ± 0.15	3.02 ± 0.15	2.7 ± 0.2	2.96 ± 0.079
QILPESQWNDSSIDKIE [SIR3]	–	3.42 ± 0.18	–	2.81 ± 0.12
SRIYKTIKVAGTPLLEV [SNU114]	2.21 ± 0.052	2.38 ± 0.055	2.03 ± 0.071	2.23 ± 0.053
NCEYEDPPNEGDPFDYK [RPB3]	3.16 ± 0.13	3.4 ± 0.12	3.36 ± 0.11	3.14 ± 0.06
EALVQAFAFCIPVYCFS [YCG1]	1.68 ± 0.071	1.83 ± 0.056	1.73 ± 0.16	1.51 ± 0.064
TYLLKNDLVKARDLLDD [RPN9]	2.7 ± 0.11	2.78 ± 0.11	–	2.52 ± 0.18
KPHGLAARVDIGQIIFS [RPL10]	2.31 ± 0.058	2.13 ± 0.037	1.72 ± 0.082	2.15 ± 0.036
ARGMTSKPAGFMKKLRA [RPS15]	3.15 ± 0.16	–	2.64 ± 0.26	3.6 ± 0.14
RIARALKQEGAANKTVV [RPL18A]	3.44 ± 0.22	3.39 ± 0.095	2.95 ± 0.15	3.33 ± 0.052
TKAVEFSMGHIRSSSVS [MED4]	3.26 ± 0.12	3.38 ± 0.093	3.18 ± 0.078	2.99 ± 0.078
DAMVTRTPVIISLRNNH [SMD2]	1.61 ± 0.058	1.85 ± 0.056	1.43 ± 0.12	1.7 ± 0.073
